Results: US12624096B2, “Anti-tau antibodies and methods of use thereof” (GTInvent Limited, priority 2020, dated 2026)

How the values were obtained:
[1] = biological target: hT40, dGA, dGAE and truncated tau fragments/peptides (Homo sapiens, UniProt P10636); test: Binding ELISA for epitope mapping with truncated tau proteins and biotinylated 13mer peptides; settings: scAbs used as negative controls in thioflavin T assay; data not shown
Description: A series of binding ELISA was performed using various truncated versions of the tau protein and 13mer peptide libraries spanning the entire hT40 molecule for mapping the epitopes of anti-tau scAbs (Full list of protein antigens used is given in Table 14). In general, ELISA plates were coated with 1 μg/ml hT40 or dGA or dGAE or other truncated versions of the protein and in the case of biotinylated peptides, plates were coated with 5 μg/ml Streptavidin followed by 1 μg/ml biotinylated peptide. The plates were blocked with 2% MPBS and scAb samples added at desired starting concentrations and double diluted across the plate. Binding was detected using anti-Human C Kappa HRP conjugated secondary antibody and the resulting immunoreaction was developed and absorbance values measured as described above.
Similarly, dGA binding ‘NS’, ‘S’ and ‘M’ group scAbs were subjected to further antigen binding ELISA using shorter tau proteins and biotinylated 13mer peptides as shown below (FIGS. 10A-F) and (FIGS. 11A-R).
For anti-tau mAb SPR measurements (Biacore X100™) and epitope mapping, the same methodologies described above (see Example 16) were followed.

[2] = biological target: hT40 (Homo sapiens, UniProt P10636); test: Biacore X100 SPR, scAb captured via anti-HuCk, hT40 as analyte; format: binding; settings: '3a' and '3b' scAbs, Table 25, hT40
In short: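 Captured scAb on anti-HuCk CM5 surface (flow cell 1 as reference) in HBS-EP+, capture set for theoretical RMax 100 RU; hT40 injected multi-cycle (0.15625–100 nM) or single-cycle (6.25–100 nM), 120 s association, 420 s dissociation, glycine pH 2.0 regeneration. Kinetics and affinity from 1:1 binding model fit.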

Sequence of hT40 (P10636 1-441 isoform P10636-8): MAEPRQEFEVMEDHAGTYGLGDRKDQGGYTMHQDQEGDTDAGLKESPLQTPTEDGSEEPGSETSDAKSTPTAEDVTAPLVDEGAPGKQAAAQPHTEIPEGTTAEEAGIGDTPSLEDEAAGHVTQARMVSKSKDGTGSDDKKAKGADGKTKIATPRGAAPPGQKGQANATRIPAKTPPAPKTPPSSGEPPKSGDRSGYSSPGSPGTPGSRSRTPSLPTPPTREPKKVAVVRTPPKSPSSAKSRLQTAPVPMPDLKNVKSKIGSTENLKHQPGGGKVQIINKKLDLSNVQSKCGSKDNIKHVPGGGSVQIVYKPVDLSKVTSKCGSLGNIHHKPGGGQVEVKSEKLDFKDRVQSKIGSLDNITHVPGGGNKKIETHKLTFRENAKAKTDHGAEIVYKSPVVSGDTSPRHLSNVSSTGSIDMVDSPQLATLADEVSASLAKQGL
Sequence of hT40, dGA, dGAE and truncated tau fragments/peptides (P10636 614-708): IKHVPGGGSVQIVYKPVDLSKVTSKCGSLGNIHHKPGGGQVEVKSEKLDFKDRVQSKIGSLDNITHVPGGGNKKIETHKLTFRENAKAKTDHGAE

B1: 3aD3: anti-tau clone, SEQ ID NO: 422 (protein)
scFv: QVQLQESGPSLVKPSQTLSLTCTVSGFSLTSNGVGWVRRAPGKVPEWVGDISSGGKVYGHPALKSRLSITRDTSKSQVSLSVSSVTSEDTAVYYCVRCRDGGVSYGYDSDYWGPGLLVTVSSEGKSSGASGESKVDDQAVVTQPSSVSKSLGQSVSITCSGSSSNVGYGDYVGWFQQVPGSAPKLLIYGVTERASGVPDRFSGSRSGNTATLTISSIQAEDEADYYCASYDDSSGGIFGSGTRLTVLG
modifications: 3aD3 amino acid sequence
cross reactivity to dGAE [1]: no cross reactivity to dGAE
ka [2]: 544400 M⁻¹ s⁻¹
kd [2]: 0.01038 s⁻¹
